Measurements: the supplement of paper PMC11136658

Test system: peptide library, one residue held at a place counted from the Y acceptor
Test: relative phosphorylation of the sub-library (ratio to the mean residue at this position); higher = residue favoured
Outline: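 Within 384-well plates, purified recombinant kinases phosphorylated biotinylated Tyr-centred peptide library mixtures over 90 min using 50 μM ATP spiked with γ-32P-ATP; each mixture fixed one residue at one position from −5 to +5. Streptavidin membrane capture, rinsing, phosphorimaging and ImageQuant gave the intensities. These were normalized per position to the sum of the 18 randomized residues (16 for the Ser/Thr-free library) and multiplied by that number.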

Sequence of BTK, construct: Full length, human (Q06187 whole entry, looked up): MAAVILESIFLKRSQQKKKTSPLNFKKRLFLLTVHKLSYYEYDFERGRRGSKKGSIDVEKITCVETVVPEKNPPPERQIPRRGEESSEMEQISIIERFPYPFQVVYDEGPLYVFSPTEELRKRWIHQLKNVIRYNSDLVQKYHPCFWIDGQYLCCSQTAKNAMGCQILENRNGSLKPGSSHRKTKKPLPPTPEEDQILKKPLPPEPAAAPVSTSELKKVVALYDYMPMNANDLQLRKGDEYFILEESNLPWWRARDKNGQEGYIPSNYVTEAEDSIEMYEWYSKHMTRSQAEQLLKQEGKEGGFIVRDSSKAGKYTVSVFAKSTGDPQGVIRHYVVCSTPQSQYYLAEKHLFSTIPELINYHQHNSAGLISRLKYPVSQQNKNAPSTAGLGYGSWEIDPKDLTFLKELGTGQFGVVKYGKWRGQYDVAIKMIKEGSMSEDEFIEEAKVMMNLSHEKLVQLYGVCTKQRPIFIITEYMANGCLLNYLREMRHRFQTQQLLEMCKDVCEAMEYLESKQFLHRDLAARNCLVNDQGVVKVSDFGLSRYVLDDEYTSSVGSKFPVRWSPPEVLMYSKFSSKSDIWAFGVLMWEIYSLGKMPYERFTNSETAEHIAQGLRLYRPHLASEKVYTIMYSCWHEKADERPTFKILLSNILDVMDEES
Sequence of CSF1R, construct: aa539-end, human (P07333 539-972, looked up): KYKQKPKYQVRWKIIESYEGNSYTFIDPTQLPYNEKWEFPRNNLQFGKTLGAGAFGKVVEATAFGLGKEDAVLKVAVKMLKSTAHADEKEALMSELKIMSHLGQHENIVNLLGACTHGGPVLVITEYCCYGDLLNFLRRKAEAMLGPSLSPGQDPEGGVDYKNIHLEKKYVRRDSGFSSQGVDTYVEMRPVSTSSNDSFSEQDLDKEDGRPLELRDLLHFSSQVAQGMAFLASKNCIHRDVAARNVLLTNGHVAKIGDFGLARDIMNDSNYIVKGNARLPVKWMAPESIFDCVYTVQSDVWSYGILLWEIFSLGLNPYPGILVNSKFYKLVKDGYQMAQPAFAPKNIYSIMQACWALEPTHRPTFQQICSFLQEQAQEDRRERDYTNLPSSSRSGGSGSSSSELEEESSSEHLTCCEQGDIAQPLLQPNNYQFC
Sequence of BMX, construct: Full length, human (P51813 whole entry, looked up): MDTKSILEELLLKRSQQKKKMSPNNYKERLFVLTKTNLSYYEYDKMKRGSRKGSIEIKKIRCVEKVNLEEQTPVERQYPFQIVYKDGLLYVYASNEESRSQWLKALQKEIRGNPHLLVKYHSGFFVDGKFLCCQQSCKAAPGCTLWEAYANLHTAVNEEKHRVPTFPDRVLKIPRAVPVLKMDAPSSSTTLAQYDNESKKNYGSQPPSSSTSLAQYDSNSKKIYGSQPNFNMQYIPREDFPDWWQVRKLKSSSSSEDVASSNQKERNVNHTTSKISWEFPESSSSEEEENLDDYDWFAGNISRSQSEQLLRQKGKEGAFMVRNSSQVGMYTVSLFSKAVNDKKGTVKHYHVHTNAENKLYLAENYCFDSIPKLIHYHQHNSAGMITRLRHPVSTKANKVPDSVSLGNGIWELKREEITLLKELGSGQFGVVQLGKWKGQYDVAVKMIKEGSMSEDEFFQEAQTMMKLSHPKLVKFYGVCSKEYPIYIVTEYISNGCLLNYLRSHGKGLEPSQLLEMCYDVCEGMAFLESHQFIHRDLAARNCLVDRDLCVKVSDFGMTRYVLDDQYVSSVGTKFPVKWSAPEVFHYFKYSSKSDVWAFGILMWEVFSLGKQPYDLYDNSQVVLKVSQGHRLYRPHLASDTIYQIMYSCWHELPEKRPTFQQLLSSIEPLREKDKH

BMX, construct: Full length, human (from UniProt P51813)
relative phosphorylation
Settings | at +1 | at +2 | at +3 | at +4 | at +5 | at -1 | at -2 | at -3 | at -4 | at -5
A fixed | 1.73 | 1.01 | 0.847 | 0.846 | 0.939 | 0.521 | 1.05 | 0.992 | 1.04 | 1.05
D fixed | 0.82 | 0.761 | 0.324 | 0.746 | 0.903 | 0.726 | 1.43 | 1.48 | 1.31 | 1.11
E fixed | 1.85 | 1.27 | 0.292 | 0.959 | 0.958 | 0.812 | 1.5 | 1.56 | 1.43 | 1.03
F fixed | 0.504 | 1.02 | 1.53 | 0.876 | 1.11 | 1.13 | 0.558 | 1.12 | 0.855 | 0.993
G fixed | 0.807 | 0.605 | 0.799 | 1.11 | 1.08 | 0.293 | 1.18 | 0.958 | 1.33 | 1.13
H fixed | 0.451 | 0.611 | 2.04 | 1.1 | 1.01 | 0.643 | 0.912 | 0.864 | 0.866 | 0.921
I fixed | 1.61 | 1.08 | 1.25 | 0.722 | 0.764 | 3.28 | 0.744 | 0.636 | 0.845 | 0.855
K fixed | 0.251 | 0.768 | 0.639 | 0.881 | 0.914 | 0.281 | 0.792 | 0.672 | 0.898 | 1.03
L fixed | 0.714 | 1 | 1.1 | 0.849 | 0.762 | 3.33 | 0.799 | 0.704 | 0.884 | 1.02
M fixed | 1.28 | 0.979 | 1.15 | 1.06 | 1.04 | 1.24 | 0.71 | 0.805 | 0.958 | 0.938
N fixed | 0.44 | 0.919 | 0.558 | 0.784 | 0.99 | 0.567 | 1.27 | 1.39 | 1.03 | 1.15
P fixed | 0.166 | 0.873 | 0.569 | 1.12 | 1.3 | 0.5 | 1.38 | 1.13 | 1.27 | 1.19
Q fixed | 1.26 | 1.02 | 1.09 | 1.19 | 0.953 | 0.652 | 1.3 | 1.08 | 1.26 | 1.1
R fixed | 0.332 | 0.919 | 1.47 | 1.27 | 1.2 | 0.298 | 0.81 | 0.823 | 0.987 | 1.06
S fixed | 1.38 | 1.27 | 0.866 | 0.935 | 1.1 | 0.475 | 1.18 | 1.08 | 0.797 | 0.923
T fixed | 1.39 | 1.35 | 0.704 | 0.936 | 1.02 | 1.1 | 1.03 | 0.909 | 0.724 | 0.787
V fixed | 1.74 | 1.42 | 1.24 | 0.898 | 0.788 | 1.64 | 0.866 | 0.792 | 0.738 | 0.867
W fixed | 1.28 | 1.11 | 1.53 | 1.73 | 1.16 | 0.501 | 0.493 | 0.987 | 0.777 | 0.868
pThr fixed | 2.3 | 2.57 | 0.296 | 0.734 | 0.603 | 2.21 | 1.19 | 1.25 | 1.09 | 0.986
pTyr fixed | 1.29 | 2.49 | 0.504 | 0.852 | 0.858 | 9.03 | 1.27 | 1.46 | 1.22 | 1.05

BTK, construct: Full length, human (from UniProt Q06187)
relative phosphorylation
Settings | at +1 | at +2 | at +3 | at +4 | at +5 | at -1 | at -2 | at -3 | at -4 | at -5
A fixed | 1.39 | 0.87 | 1.06 | 0.754 | 0.911 | 0.443 | 0.964 | 0.709 | 1.04 | 0.982
D fixed | 0.67 | 0.561 | 0.345 | 0.63 | 0.755 | 0.375 | 1.14 | 1.22 | 1.19 | 1.1
E fixed | 1.36 | 1.13 | 0.302 | 0.661 | 0.676 | 0.416 | 1.24 | 1.71 | 1.41 | 0.914
F fixed | 0.954 | 1.32 | 1.41 | 1.1 | 1.46 | 1.97 | 0.934 | 1.43 | 1.13 | 1.21
G fixed | 1.1 | 0.546 | 0.759 | 0.928 | 0.941 | 0.308 | 1.04 | 0.779 | 1.03 | 1.01
H fixed | 0.657 | 0.679 | 0.995 | 1.02 | 0.909 | 1.3 | 0.871 | 1 | 0.984 | 1.02
I fixed | 1.17 | 1.19 | 1.42 | 1.01 | 0.796 | 2.79 | 0.874 | 0.799 | 1.01 | 1.04
K fixed | 0.398 | 0.873 | 1.01 | 1.17 | 1.05 | 0.294 | 0.708 | 0.644 | 0.736 | 0.884
L fixed | 1.03 | 0.884 | 0.801 | 0.915 | 1.05 | 2.9 | 1.3 | 0.812 | 1.1 | 0.941
M fixed | 1.43 | 1.05 | 0.925 | 1.38 | 1.24 | 1.55 | 0.796 | 1.11 | 1.03 | 1.18
N fixed | 0.466 | 0.827 | 0.886 | 0.779 | 0.949 | 0.589 | 1.21 | 1.1 | 0.823 | 1.17
P fixed | 0.181 | 0.636 | 0.553 | 0.772 | 1.23 | 0.526 | 1.19 | 0.967 | 1.03 | 0.99
Q fixed | 0.963 | 0.923 | 0.722 | 1.07 | 0.816 | 0.486 | 0.966 | 0.892 | 1.01 | 0.937
R fixed | 0.524 | 1.26 | 1.62 | 1.53 | 1.25 | 0.279 | 0.771 | 0.729 | 0.964 | 0.985
S fixed | 0.888 | 1.05 | 1.14 | 0.749 | 0.755 | 0.375 | 1.15 | 0.814 | 0.725 | 0.766
T fixed | 0.812 | 1.27 | 0.946 | 0.917 | 0.816 | 0.788 | 0.868 | 0.745 | 0.658 | 0.769
V fixed | 1.58 | 1.27 | 1.3 | 0.944 | 0.892 | 1.55 | 1.07 | 0.838 | 0.926 | 0.965
W fixed | 2.42 | 1.67 | 1.8 | 1.68 | 1.5 | 1.06 | 0.902 | 1.7 | 1.21 | 1.14
pThr fixed | 1.09 | 1.45 | 0.357 | 0.523 | 0.47 | 0.911 | 1.01 | 0.846 | 0.896 | 0.954
pTyr fixed | 1.22 | 1.58 | 0.433 | 0.603 | 0.684 | 1.26 | 1.14 | 1.15 | 1.26 | 1.09

CSF1R, construct: aa539-end, human (from UniProt P07333)
relative phosphorylation
Settings | at +1 | at +2 | at +3 | at +4 | at +5 | at -1 | at -2 | at -3 | at -4 | at -5
A fixed | 0.891 | 0.881 | 0.64 | 0.958 | 0.873 | 0.884 | 1.16 | 1.02 | 1.07 | 1.09
D fixed | 0.331 | 0.636 | 0.32 | 0.718 | 0.844 | 1.13 | 1.11 | 1.36 | 1.3 | 1.14
E fixed | 0.638 | 0.924 | 0.246 | 0.784 | 0.832 | 1.06 | 1.17 | 1.77 | 1.47 | 1.06
F fixed | 1.89 | 1.09 | 1.97 | 1.27 | 0.977 | 1.04 | 0.617 | 0.741 | 0.821 | 0.963
G fixed | 0.444 | 0.508 | 0.633 | 1.15 | 1.43 | 0.656 | 1.22 | 1.27 | 1.23 | 1.2
H fixed | 1.74 | 0.993 | 0.863 | 1.15 | 1.05 | 1.77 | 0.992 | 0.973 | 0.923 | 1
I fixed | 1.67 | 1.04 | 2.14 | 0.891 | 0.781 | 1.62 | 0.834 | 0.63 | 0.846 | 0.783
K fixed | 0.674 | 0.951 | 0.632 | 1.01 | 1.05 | 0.535 | 0.751 | 0.731 | 0.878 | 0.98
L fixed | 1.3 | 1.21 | 1.93 | 0.874 | 0.689 | 1.23 | 0.952 | 0.763 | 0.858 | 0.817
M fixed | 1.2 | 1.05 | 1.67 | 1.06 | 0.927 | 0.91 | 0.757 | 0.755 | 0.863 | 0.909
N fixed | 0.512 | 0.965 | 0.523 | 0.975 | 1.08 | 1.15 | 1.16 | 1.21 | 0.936 | 1.12
P fixed | 0.565 | 0.847 | 1.13 | 0.922 | 1.34 | 1.05 | 1.6 | 1.17 | 1.34 | 1.29
Q fixed | 0.973 | 0.989 | 0.519 | 0.965 | 0.931 | 0.919 | 1.03 | 1.07 | 0.921 | 0.93
R fixed | 0.745 | 1.31 | 0.929 | 1.36 | 1.2 | 0.474 | 0.844 | 0.786 | 0.782 | 0.871
S fixed | 0.721 | 0.893 | 0.604 | 1.02 | 1.24 | 0.687 | 1.2 | 1.14 | 0.97 | 1.03
T fixed | 0.938 | 1.11 | 0.856 | 1.04 | 1.07 | 1.08 | 1.08 | 1.12 | 0.899 | 1.01
V fixed | 1.56 | 1.11 | 1.47 | 0.851 | 0.756 | 1.12 | 0.939 | 0.748 | 0.866 | 0.859
W fixed | 1.2 | 1.49 | 0.91 | 1.01 | 0.928 | 0.678 | 0.575 | 0.745 | 1.02 | 0.943
pThr fixed | 0.739 | 1.17 | 0.232 | 0.432 | 0.567 | 1.02 | 0.996 | 1.2 | 1.12 | 0.956
pTyr fixed | 1.61 | 1.25 | 0.341 | 0.698 | 0.773 | 1.87 | 1.01 | 1.11 | 1.16 | 1
